Experimental data taken from the RNAGym collection of RNA variant scans (doi:10.1073/pnas.2313332121).
Fewer inactive variants are shown than the library holds.

B1: TPR 5TU (parent)
chain: GGAUCUUCUCGAUCUAACAAAAAAGACAAAUCUGCCACAAAGCUUGAGAGCAUCUUCGGAUGCAGAGGCGGCAGCCUUCGGUGGCGCGAUAGCGCCAACGUUCUCAACUAUGACACGCAAAACGCGUGCUCCGUUGAAUGGAGUUUAUCAUG

Variants of: B1
Assay: polymerase ribozyme fitness, log enrichment relative to wild type (log ratio); higher = more active; in vitro selection for triplet polymerase activity
Outline: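 Only genotypes with ≥10 input reads and ≥1 read per output were kept after Illumina sequencing of input and output libraries. These libraries were PCR-built, transcribed mutants of each subunit of a heterodimeric triplet polymerase ribozyme, each put through one triplicate in vitro selection round with frozen incubation at −7 °C, gel excision of extended constructs, streptavidin-bead capture and RT-PCR. Fitness is a logarithmic ratio of genotype enrichment to wild-type enrichment, from inverse-variance-weighted replicate averages, with the logarithm in base 2.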

Variant	polymerase ribozyme fitness (log ratio)
A24C A41U C54A	≤ -4.2
A23G A40U C76U C87U A89G G133C	≤ -4.2
A23U C51U C76A C96G C103G A115G	≤ -4.2
A22U U45A C57U G58A G59U C87A	≤ -4.2
A23U C54U C57U G68A C87A A91G G133U	≤ -4.2
A23G G34U G141C	≤ -4.2
A21U U56A	-0.173
A22C A60C G62U	-2.13
A23U G48A C87G U104C	≤ -4.2
A24C G141C	-3.54
A23U C79U U101G G141C	≤ -4.2
A22U U61G G86A U104G	≤ -4.2
A22U G34A U55A G59C C95A C118G	-3.53
A24G G71C G83C C87U C96U C149A	≤ -4.2
A22C A60G C96G C114A C131G	≤ -4.2
A23G G58U C87A A115U	≤ -4.2
A22C G86A	-1.57
A24C C54G G74A U82A A89U U146A	≤ -4.2
A22U C57A G70C U78A G80A	≤ -4.2
A23U C54G U61A C72A G86A G141A	≤ -4.2
A21U G83A	-1.45

Variant	polymerase ribozyme fitness (log ratio)
A22C C85G	-2.43
A22U U55G C57U	0.196
A22U G50C C63U G71A G84A G117U A122U	-4
A22U A28U C38G C51U G83C	≤ -4.2
A22C C85G A150G	-2.71
A24C C87U	-3.57
A21U U44G C131U G136C G141U U151A	≤ -4.2
A22U A52C U55A G67U	≤ -4.2
A24C C96G C118A	-4.19
A22C G71C C79U C95G G143A U144C	≤ -4.2
A22U C57U	-0.0575
A22C G84U A91U A107C G136C	≤ -4.2
A24C A66C G71C G84U	≤ -4.2
A23C G81A A91U G143A	≤ -4.2
A22C C79A G83U A115G G141A	≤ -4.2
A24G A28U U55A G140A	≤ -4.2
A23C C54G A64G C125A U148C C149A A150U	≤ -4.2
A22C G65C G80U A91G	≤ -4.2
A22G C35A A107C	≤ -4.2
A22G C54U C85U C103U C132U A147C	-3.75
A22U A29U A39U U55A C79A C93G	≤ -4.2

Variant	polymerase ribozyme fitness (log ratio)
A21U U53A A73C C76A G88A C114U U134A	≤ -4.2
A24G A49C G92U A122C	≤ -4.2
A23C A110G U111A	≤ -4.2
A23C A26C A52U C63A C131U G141U U145C	≤ -4.2
A24C C125U	≤ -4.2
A24G C27U U31A A47C U77C C85U U102C U144C	≤ -4.2
A21U U55A C63U C85U	0.519
A22C G42U A47G C76G A91G A106U A110G	≤ -4.2
A22G G25U C38A A52G C96U	-2.43
A22U U55G	-0.206
A21U U33A A39G C87U G136C	≤ -4.2
A22G A89C	-0.303
A23C A29G C96G U139G	-4.19
A21U U33C G42A U45G U53A U90A C96U C114G	-3.87
A22U A91G	-3.05
A23U A52C	≤ -4.2
A23G G59U C75G U90C C129A	≤ -4.2
A24G C123U G140C	≤ -4.2
A24G A26U A39U U53A C57U G59A G68U G86A C99A A106U	-4.18
A24G C27A G84U G86A C131A	≤ -4.2
A23U C76G C93G	≤ -4.2

Variant	polymerase ribozyme fitness (log ratio)
A23G U90G C93A A107U	≤ -4.2
A22U C54A G59C A122C G141A	-0.175
A21U U135C	-1.61
A22U A39C G59C G143A	-4.09
A24C U31C U33G C76G C85U C125G	≤ -4.2
A24C C38A U77A G84C A89U	≤ -4.2
A22C A37C G59U A89U C93G A119U	≤ -4.2
A22C	-0.18
A22U	0.491
A22G	0.56
A22C G81A	-0.137
A24G A40U U61C A137C A142C	≤ -4.2
A22G G92C	0.21
A24C G42C G50U A91U C103A U134A	≤ -4.2
A22G A37C G50C A64G G65C G88A A110G	≤ -4.2
A23G C32G A52U C85A U102G U127G	≤ -4.2
A21U G84A	0.266
A24C G58C C72G U130G	≤ -4.2
A22G G34C C95U A138G	≤ -4.2
A22G G48C G59A G83A	-4.06
A22G G80A G86A C93A	-4.2
